The values below come from patent publication US20230183713A1, “SITE-SPECIFIC RECOMBINASES FOR EFFICIENT AND SPECIFIC GENOME EDITING” (TECHNISCHE UNIVERSITÄt DRESDEN, published 2023).

Substitutions are numbered along the chain they refer to. Names and notes keep the numbering of the source.

For series [1], the target named is T1, Cre recombinase monomer with E176Y mutation.
T1 chain: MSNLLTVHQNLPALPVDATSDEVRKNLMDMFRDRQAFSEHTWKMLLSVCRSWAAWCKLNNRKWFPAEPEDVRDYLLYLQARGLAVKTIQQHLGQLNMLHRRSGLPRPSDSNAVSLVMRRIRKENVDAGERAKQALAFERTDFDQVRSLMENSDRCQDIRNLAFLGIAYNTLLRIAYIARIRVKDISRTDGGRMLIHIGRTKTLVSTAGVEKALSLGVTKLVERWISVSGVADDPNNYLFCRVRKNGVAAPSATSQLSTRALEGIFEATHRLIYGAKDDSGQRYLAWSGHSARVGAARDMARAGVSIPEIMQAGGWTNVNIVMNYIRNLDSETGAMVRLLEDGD

For series [2], the target named is T2, Cre recombinase monomer with E176W mutation.
T2 chain: T1 chain with Y176W

Series [3] deals with T3, Cre recombinase monomer with E176M mutation.
T3 chain: T1 chain with Y176M

Series [4] deals with T4, Cre recombinase monomer with E176I mutation.
T4 chain: T1 chain with Y176I

In series [5] the target is T5, Cre recombinase monomer with Q311R mutation.
T5 chain: T1 chain with Y176E, Q311R

The target of series [6] is T6, Cre recombinase monomer with E176V mutation.
T6 chain: T1 chain with Y176V

In series [7] the target is T7, Cre recombinase monomer with K201Q mutation.
T7 chain: T1 chain with Y176E, K201Q

In series [8] the target is T8, Cre recombinase monomer with W315M mutation.
T8 chain: T1 chain with Y176E, W315M

Series [9] concerns the target T9, Cre recombinase monomer with Y324N mutation.
T9 chain: T1 chain with Y176E, Y324N

Series [10] addresses T10, Cre recombinase monomer with K201F mutation.
T10 chain: T1 chain with Y176E, K201F

Series [11] deals with T11, Cre recombinase monomer with E176H mutation.
T11 chain: T1 chain with Y176H

Series [12] addresses T12, Cre recombinase monomer with K201Y mutation.
T12 chain: T1 chain with Y176E, K201Y

Series [13] concerns the target T13, Cre recombinase monomer with Y324T mutation.
T13 chain: T1 chain with Y176E, Y324T

B1: Cre recombinase monomer with R173F mutation (protein)
chain: T1 chain with R173F, Y176E
Regarding B1, the “Median dimer activity (recombination on loxP)” value (“Median dimer activity” below) is given as 40% in series [1]; 30% in series [2]; 38% in series [3]; 25% in [4]; 84% in series [5]; 82% in series [6]. The “Median dimer activity” value in series [7] was 39%.

B2: Cre recombinase monomer with R173L mutation (protein)
chain: T1 chain with R173L, Y176E
In the case of B2, the “Median dimer activity” value is listed as 63% in series [8]; 88% in [9]; 41% in [10]; 66% in series [11]; 94% in [5].

B3: Cre recombinase monomer with R173G mutation (protein)
chain: T1 chain with R173G, Y176E
B3: the “Median dimer activity” value in series [12] was found to be 95%; in series [5], 95%; in series [13], 32%.
